Test results taken from article PMC13276077.

B1: 15-N601-15 nucleosome 81 meCpA (nucleosome)
DNA 1: ATGGAACACATTGCACAGGATGTATATATCTGACACGTGCCTGGAGACTAGGGAGTAATCCCCTTGGCGGTTAAAACGCGGGGGACAGCGCGTACGTGCGTTTAAGCGGTGCTAGAGCTGTCTACGACCAATTGAGCGGCCTCGGCACCGGGATTCTCCAGGGCGGCCGCGTATT
DNA 2: AATACGCGGCCGCCCTGGAGAATCCCGGTGCCGAGGCCGCTCAATTGGTCGTAGACAGCTCTAGCACCGCTTAAACGCACGTACGCGCTGTCCCCCGCGTTTTAACCGCCAAGGGGATTACTCCCTAGTCTCCAGGCACGTGTCAGATATATACATCCTGTGCAATGTGTTCCAT
modifications: linker meCpA 81 bp from dyad
B2: N601 nucleosome core particle -1 meCpG (nucleosome)
DNA 1: CAGGATGTATATATCTGACACGTGCCTGGAGACTAGGGAGTAATCCCCTTGGCGGTTAAAACGCGGGGGACAGCGCGTACGTGCGTTTAAGCGGTGCTAGAGCTGTCTACGACCAATTGAGCGGCCTCGGCACCGGGATTCTCCA
DNA 2: TGGAGAATCCCGGTGCCGAGGCCGCTCAATTGGTCGTAGACAGCTCTAGCACCGCTTAAACGCACGTACGCGCTGTCCCCCGCGTTTTAACCGCCAAGGGGATTACTCCCTAGTCTCCAGGCACGTGTCAGATATATACATCCTG
modifications: meCpG at -1

How the values were obtained:
[1] = molecular target: MeCP2 full-length, e2 isoform;histone H1.0 1-97;histone octamer (Homo sapiens;Homo sapiens;, UniProt P51608;P07305;P0C0S8;P62807;P68431;P62805 1-486;1-97;2-130;2-126;2-136;2-103, ||H2B T115C;H3.1 C96S;C110A); experiment: EMSA; H1.0 residues 1-97 pre-bound (chromatosome); 20 mM HEPES pH 7.5, 75 mM NaCl, 125 mM KCl, 50 uM EDTA, 2.5 mM beta-mercaptoethanol, 5% glycerol, BSA, 1.58 uM 47 bp competitor DNA (nucleosome assays); absent w
[2] = molecular target: MeCP2 full-length, e2 isoform;histone H1.0 25-97;histone octamer (Homo sapiens;Homo sapiens;, UniProt P51608;P07305;P0C0S8;P62807;P68431;P62805 1-486;25-97;2-130;2-126;2-136;2-103, ||H2B T115C;H3.1 C96S;C110A); experiment: EMSA; H1.0 residues 25-97 pre-bound (chromatosome); 20 mM HEPES pH 7.5, 75 mM NaCl, 125 mM KCl, 50 uM EDTA, 2.5 mM beta-mercaptoethanol, 5% glycerol, BSA, 1.58 uM 47 bp competitor DNA (nucleosome assays); absent w
[3] = molecular target: T1, MeCP2 MBD;histone octamer, H3Kc27me3 (Homo sapiens;Homo sapiens, UniProt P51608;P0C0S8;P62807;P68431;P62805 77-167;2-130;2-126;2-136;2-103, |H3.1 K27C (trimethyl-lysine analogue, Kc27me3);C96S;C110A); experiment: EMSA; H3K27me3 (H3Kc27me3) histone octamer; 20 mM HEPES pH 7.5, 75 mM NaCl, 125 mM KCl, 50 uM EDTA, 2.5 mM beta-mercaptoethanol, 5% glycerol, BSA, 1.58 uM 47 bp competitor DNA (nucleosome assays); absent w
[4] = molecular target: MeCP2 full-length, e2 isoform;histone octamer (Homo sapiens;, UniProt P51608;P0C0S8;P62807;P68431;P62805 1-486;2-130;2-126;2-136;2-103, |H2B T115C;H3.1 C96S;C110A); experiment: EMSA; 20 mM HEPES pH 7.5, 75 mM NaCl, 125 mM KCl, 50 uM EDTA, 2.5 mM beta-mercaptoethanol, 5% glycerol, BSA, 1.58 uM 47 bp competitor DNA (nucleosome assays); absent w
[5] = molecular target: T2, MeCP2 MBD;histone octamer (Homo sapiens;Homo sapiens, UniProt P51608;P0C0S8;P62807;P68431;P62805 77-167;2-130;2-126;2-136;2-103, |H3.1 C96S;C110A); experiment: as above
[6] = molecular target: T3, MeCP2 MBD;histone octamer, tailless H3 (Homo sapiens;Homo sapiens, UniProt P51608;P0C0S8;P62807;P68431;P62805 77-167;2-130;2-126;26-136;2-103, |H3.1 del1-24;A25C;C96S;C110A); experiment: EMSA; H3-tailless histone octamer; 20 mM HEPES pH 7.5, 75 mM NaCl, 125 mM KCl, 50 uM EDTA, 2.5 mM beta-mercaptoethanol, 5% glycerol, BSA, 1.58 uM 47 bp competitor DNA (nucleosome assays); absent w
[7] = molecular target: MeCP2 full-length, e2 isoform;histone octamer, tailless H3 (Homo sapiens;Homo sapiens, UniProt P51608;P0C0S8;P62807;P68431;P62805 1-486;2-130;2-126;26-136;2-103, |H3.1 del1-24;A25C;C96S;C110A); experiment: EMSA; H3-tailless histone octamer; no competitor DNA; 20 mM HEPES pH 7.5, 75 mM NaCl, 125 mM KCl, 50 uM EDTA, 2.5 mM beta-mercaptoethanol, 5% glycerol, BSA, 1.58 uM 47 bp competitor DNA (nucleosome assays); absent w
[8] = molecular target: T3, MeCP2 MBD;histone octamer, tailless H3; experiment: as above
[9] = molecular target: T1, MeCP2 MBD;histone octamer, H3Kc27me3; experiment: EMSA; H3K27me3 histone octamer; no competitor DNA; 20 mM HEPES pH 7.5, 75 mM NaCl, 125 mM KCl, 50 uM EDTA, 2.5 mM beta-mercaptoethanol, 5% glycerol, BSA, 1.58 uM 47 bp competitor DNA (nucleosome assays); absent w
[10] = molecular target: MeCP2 full-length, e2 isoform;histone octamer, H3Kc27me3 (Homo sapiens;Homo sapiens, UniProt P51608;P0C0S8;P62807;P68431;P62805 1-486;2-130;2-126;2-136;2-103, |H3.1 K27C (trimethyl-lysine analogue, Kc27me3);C96S;C110A); experiment: as above
[11] = molecular target: T2, MeCP2 MBD;histone octamer; experiment: EMSA; no competitor DNA; 20 mM HEPES pH 7.5, 75 mM NaCl, 125 mM KCl, 50 uM EDTA, 2.5 mM beta-mercaptoethanol, 5% glycerol, BSA, 1.58 uM 47 bp competitor DNA (nucleosome assays); absent w
[12] = molecular target: MeCP2 full-length, e2 isoform;histone octamer (Homo sapiens;Homo sapiens, UniProt P51608;P0C0S8;P62807;P68431;P62805 1-486;2-130;2-126;2-136;2-103, |H3.1 C96S;C110A); experiment: as above
[13] = molecular target: MeCP2 MBD;histone octamer, acidic patch mutant (Homo sapiens;Homo sapiens, UniProt P51608;P0C0S8;P62807;P68431;P62805 77-167;2-130;2-126;2-136;2-103, |H2A E61A;E91A;E92A;H2B E113A;H3.1 C96S;C110A); experiment: EMSA; acidic patch mutant histone octamer; no competitor DNA; 20 mM HEPES pH 7.5, 75 mM NaCl, 125 mM KCl, 50 uM EDTA, 2.5 mM beta-mercaptoethanol, 5% glycerol, BSA, 1.58 uM 47 bp competitor DNA (nucleosome assays); absent w
[14] = molecular target: MeCP2 full-length, e2 isoform;histone octamer, acidic patch mutant (Homo sapiens;Homo sapiens, UniProt P51608;P0C0S8;P62807;P68431;P62805 1-486;2-130;2-126;2-136;2-103, |H2A E61A;E91A;E92A;H2B E113A;H3.1 C96S;C110A); experiment: as above

| Binder | Kd [1] [nM] | Kd [2] [nM] | Kd [3] [nM] | Kd [4] [nM] | Kd [5] [nM] | Kd [6] [nM] | Kd [7] [nM] | Kd [8] [nM] | Kd [9] [nM] | Kd [10] [nM] | Kd [11] [nM] | Kd [12] [nM] | binding result [4] | Kd [13] [nM] | Kd [14] [nM] |
| --- | --- | --- | --- | --- | --- | --- | --- | --- | --- | --- | --- | --- | --- | --- | --- |
| B1 | 382 | 295 | 442 | 141 | 424 | 334 | – | – | – | – | – | – | – | – | – |
| B2 | – | – | – | – | – | – | 29.2 | 35.5 | 85.5 | 56.8 | 50.7 | 44.2 | no binding | 51.5 | 49.7 |
